Assay results: the supplement of paper PMC7125110
± gives the standard error. Fewer inactive variants are shown than the library holds.

B1: glmS ribozyme (parent)
chain: AUAAAAGCGCCAGAACUACAGAAAUGUAGUUGACGAGGAGGAGGUUUAUCGAAUUUUCGGCGGAUGCCUCCAAA

Key:
Settings in all cases: with glucosamine-6-phosphate
glucosamine-6-phosphate [1] = variants of: B1; test: self-cleavage kobs at 640 uM GlcN6P; higher = faster cleavage; RNA array
How it was run: (§1)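 In situ transcription by E. coli RNA polymerase produced barcoded ribozyme variants on sequenced MiSeq chips, and a hybridised Cy3 probe tracked them at 37 °C. Glucosamine-6-phosphate was flowed in at 40 μM to 10 mM in HEPES/KCl/Mg(OAc)2 buffer. kcat and KM were taken from weighted Michaelis–Menten fits of kobs values from exponential decay fits.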

glucosamine-6-phosphate [2] = variants of: B1; test: self-cleavage kobs at 2500 uM GlcN6P; higher = faster cleavage; RNA array
How it was run: as §1

glucosamine-6-phosphate [3] = variants of: B1; test: self-cleavage kobs at 10000 uM GlcN6P; higher = faster cleavage; RNA array
How it was run: as §1

Variant | self-cleavage kobs at 640 uM GlcN6P (glucosamine-6-phosphate [1]) [s⁻¹] | self-cleavage kobs at 2500 uM GlcN6P (glucosamine-6-phosphate [2]) [s⁻¹] | self-cleavage kobs at 10000 uM GlcN6P (glucosamine-6-phosphate [3]) [s⁻¹]
C10U G35U G51A | < 1e-05 |  | 
A42U G44C A52C U57G U65A U69C | < 1e-05 | < 1e-05 | 
C34G U57A | < 1e-05 |  | < 1e-05
G40A U57C C58A C61U | < 1e-05 |  | 
U55A U56A | 0.00306 ± 0.00092 | 0.00346 ± 0.0013 | 0.0126 ± 0.0024
C10A C16U G35A | < 1e-05 | < 1e-05 | 
C11G C50A A52G | < 1e-05 |  | 
U30C U47G | 6.62e-05 ± 2.2e-05 | 3.09e-05 ± 1.1e-05 | 2.83e-05 ± 6e-06
C11U G29U G37C C70A | 0.000166 ± 5.6e-05 |  | 
C61G C70G C71G | 0.000223 ± 8.8e-05 | 8.65e-05 ± 2.4e-05 | 
A15G U31A U47G | 0.000471 ± 0.00011 | 0.00142 ± 0.0005 | 
G35C U47G C50G G66A |  | 7.72e-05 ± 2.7e-05 | 
U31A A33U G44U U69C | < 1e-05 |  | 
A12U A15G U47G | 0.00207 ± 0.00042 |  | 
A33C G35C U56C C67U | < 1e-05 |  | 
C11U A15G C70U | 0.000677 ± 0.00015 | 0.00215 ± 0.00061 | 
A12G G38C C68G | < 1e-05 | < 1e-05 | 
C11U G41A G60U G63U C70U | < 1e-05 | < 1e-05 | 
U45C U47A | 0.000335 ± 8.3e-05 | 0.000441 ± 0.00018 | 
A15U U45C C50G U69G | < 1e-05 | < 1e-05 | 
A15U A42C C67U C70G | < 1e-05 | < 1e-05 | 
G9A A12U U49A | < 1e-05 | < 1e-05 | 
U30A G37A U56A | 5.62e-05 ± 1.7e-05 |  | 

Variant | self-cleavage kobs at 640 uM GlcN6P (glucosamine-6-phosphate [1]) [s⁻¹] | self-cleavage kobs at 2500 uM GlcN6P (glucosamine-6-phosphate [2]) [s⁻¹] | self-cleavage kobs at 10000 uM GlcN6P (glucosamine-6-phosphate [3]) [s⁻¹]
A12C G13U A36U | < 1e-05 | < 1e-05 | 
G51A U54C U55G | < 1e-05 |  | 
G13U C16A A39G G40U C68G | < 1e-05 | < 1e-05 | 
A15G A42C A64C U69C | < 1e-05 |  | 
A14C A36U G38A U69A | 7.64e-05 ± 1.8e-05 |  | 
C8A G13A C61U G62C C70A | < 1e-05 | < 1e-05 | 
A14U G43C | < 1e-05 | < 1e-05 | < 1e-05
G7U A12C C16U G60A |  | < 1e-05 | 
C11A A53G G63A | < 1e-05 |  | 
U27G A28U U30G C68A | < 1e-05 | < 1e-05 | 
A6U G37C G38A C71A | < 1e-05 |  | 
G38U A64U C70G | 8.06e-05 ± 3.4e-05 |  | 
C34U A39C G59A |  | < 1e-05 | 
G9C A12C | < 1e-05 | < 1e-05 | < 1e-05
A6U A33C A39U C71U | < 1e-05 |  | 
A52G G66A | 0.000162 ± 3e-05 | 0.000203 ± 4.6e-05 | 0.000481 ± 0.00017
A6G A14U C16G U56A | < 1e-05 |  | 
G44U G60C G62U | < 1e-05 | < 1e-05 | < 1e-05
G7U G29U A48C | < 1e-05 | < 1e-05 | < 1e-05
C58U A64C C71A | < 1e-05 |  | 
G13U G40A G43C U49C C68G | < 1e-05 |  | 
C8U A64G C67G | < 1e-05 |  | 
C11A G32U C70G | 0.000101 ± 4.4e-05 |  | 

Variant | self-cleavage kobs at 640 uM GlcN6P (glucosamine-6-phosphate [1]) [s⁻¹] | self-cleavage kobs at 2500 uM GlcN6P (glucosamine-6-phosphate [2]) [s⁻¹] | self-cleavage kobs at 10000 uM GlcN6P (glucosamine-6-phosphate [3]) [s⁻¹]
G41A G51U C68U C70G | < 1e-05 | < 1e-05 | 
G7A A52G U57A | < 1e-05 | < 1e-05 | 
U30A G51U A53C G59A G60C C70G | < 1e-05 |  | 
C16G G32U C61U | < 1e-05 | < 1e-05 | 
G29U A33U G44U A52U | < 1e-05 |  | 
C16U G59C G62U | < 1e-05 |  | 
A14G A42C G63U | < 1e-05 |  | 
U45G G66C | 0.000414 ± 0.00017 | 0.000927 ± 0.00042 | 0.00369 ± 0.00067
C16U G32C G35A C68A | < 1e-05 | < 1e-05 | 
G35A G40U G62U | < 1e-05 | < 1e-05 | 
A36U G38A A52U C67G | 4.67e-05 ± 1.8e-05 | 4.17e-05 ± 2.1e-05 | 
A36G G43U | < 1e-05 |  | < 1e-05
A14G U69A C70A | 5.74e-05 ± 2.2e-05 | 8.42e-05 ± 1.9e-05 | 
G9A G35A C58U C71U | < 1e-05 |  | 
G9A U47G U49G | < 1e-05 |  | 
G29U A48U C61U | < 1e-05 |  | 
G29C A33U G35C A52U | < 1e-05 | < 1e-05 | 
G37A U55G C70U | 0.000222 ± 4.2e-05 | 0.000106 ± 3e-05 | 
A15G A48U C70G | 5.16e-05 ± 1.9e-05 | 6.9e-05 ± 1.6e-05 | 
U31A G43C U45G A52U C70U | < 1e-05 |  | 
A14U G26A C68G | 5e-05 ± 2e-05 | 4.16e-05 ± 1.8e-05 | 
G32U U55G C71U | 0.00014 ± 3.5e-05 |  | 0.000518 ± 0.00011
G29C U30G C70U | 0.000861 ± 0.00017 |  | 

Variant | self-cleavage kobs at 640 uM GlcN6P (glucosamine-6-phosphate [1]) [s⁻¹] | self-cleavage kobs at 2500 uM GlcN6P (glucosamine-6-phosphate [2]) [s⁻¹] | self-cleavage kobs at 10000 uM GlcN6P (glucosamine-6-phosphate [3]) [s⁻¹]
U46A C58G | < 1e-05 |  | 
C50G U65G U69A | 0.000101 ± 2.1e-05 |  | 
A14U C67U C68G | 0.000113 ± 3.4e-05 |  | 
G7U G9A A14U U55C | < 1e-05 |  | 
C10A U54G U65C | < 1e-05 |  | 
C10G A12U U56G C71U | < 1e-05 |  | 
C11U A36G G40U G44A C61A C71U |  | < 1e-05 | 
G32C G35U A52G | < 1e-05 | < 1e-05 | 
A6U A15C G44U | < 1e-05 | < 1e-05 | 
G13A U45A U49A | < 1e-05 | < 1e-05 | 
G7C G38C A48C | < 1e-05 | < 1e-05 | 
C8A C16A G63U A64G U65C C71G | < 1e-05 |  | 
A36C G37A A64G | < 1e-05 |  | 
G66A C67U C70U |  | 0.000488 ± 0.00017 | 
G29U C34U C50G C70U | 0.000136 ± 2.9e-05 | 8.93e-05 ± 2.5e-05 | 
U45A U49C | < 1e-05 |  | < 1e-05
C10G U49C G66C | < 1e-05 | < 1e-05 | 
A6U A12G G59C C67A | < 1e-05 |  | 
G29A C50G C71A | 0.000129 ± 3.4e-05 | 0.000111 ± 2.3e-05 | 
U31G G44U U46G C58A | < 1e-05 |  | 
G35A C58A | < 1e-05 | < 1e-05 | 
A14U A48U G51A A52G | < 1e-05 | < 1e-05 | 
A12G U45G A52U C61G | < 1e-05 |  | 

Variant | self-cleavage kobs at 640 uM GlcN6P (glucosamine-6-phosphate [1]) [s⁻¹] | self-cleavage kobs at 2500 uM GlcN6P (glucosamine-6-phosphate [2]) [s⁻¹] | self-cleavage kobs at 10000 uM GlcN6P (glucosamine-6-phosphate [3]) [s⁻¹]
A6U G32C C67G | < 1e-05 | < 1e-05 | 
A39U A42C U49G | < 1e-05 |  | 
G38A G40C A42C A72U | < 1e-05 |  | 
G7A G38C G59C | < 1e-05 |  | 
U57G C67G | 0.000478 ± 0.00018 |  | 2.33e-05 ± 1e-05
C34A G35U A36U | < 1e-05 |  | < 1e-05
G9C A12C G13U G44U C67A | < 1e-05 |  | 
G13U A64U C70G | < 1e-05 |  | 
C10U A36U G41A | < 1e-05 | < 1e-05 | 
A12G G41A G59U | < 1e-05 | < 1e-05 | 
G13A A42C G44U | < 1e-05 |  | 
U31A G35C G38U A48U U49G G63C | < 1e-05 | < 1e-05 | 
G13U U56C A64G | < 1e-05 |  | 
G7C A48G U54G | < 1e-05 |  | 
A12G A15G G44A U54A C61U |  | < 1e-05 | 
A6C A36C U56G | < 1e-05 | < 1e-05 | 
A6G U30G G43C G60U C71G | < 1e-05 |  | 
C34U U69G C71U | 0.000948 ± 0.00043 | 6.74e-05 ± 3.3e-05 | 
G38A G43U G51C | < 1e-05 | < 1e-05 | 
U56G U57G U65C | < 1e-05 | < 1e-05 | 
C11G G35C A52U | < 1e-05 |  | 
C16G C50U A53C C68G |  | 0.000113 ± 4.6e-05 | 
G43C U69G | < 1e-05 |  | < 1e-05

Variant | self-cleavage kobs at 640 uM GlcN6P (glucosamine-6-phosphate [1]) [s⁻¹] | self-cleavage kobs at 2500 uM GlcN6P (glucosamine-6-phosphate [2]) [s⁻¹] | self-cleavage kobs at 10000 uM GlcN6P (glucosamine-6-phosphate [3]) [s⁻¹]
G38U G43U U57C C70U | < 1e-05 |  | 
U49A G66A | < 1e-05 |  | 
A14C U46G G66A | 0.000298 ± 5.1e-05 | 0.000166 ± 3.6e-05 | 
A15U G38U G40C A52U C58U C61G | < 1e-05 |  | 
U55G G62A G63U | < 1e-05 |  | < 1e-05
C10A C16A C68A | 0.000126 ± 4.7e-05 |  | 
G13U U31C G41A | < 1e-05 |  | 
C16U U57A |  | 6.81e-05 ± 2.8e-05 | 0.000194 ± 4.1e-05
G7C A36U C67G | < 1e-05 | < 1e-05 | < 1e-05
C10A G51C A52U C70U | < 1e-05 |  | 
A12U G38C A39C | < 1e-05 |  | < 1e-05
G29U G41C A42U G63U | < 1e-05 |  | 
A36U A39G U45G C61U G62C | < 1e-05 | < 1e-05 | < 1e-05
U31G G38A U57C C58U G66C | < 1e-05 |  | 
G9C U30A U49C U56G | < 1e-05 |  | 
G35A A36C C61G A64G | < 1e-05 |  | 
U30A A48C C58U G59C | < 1e-05 |  | 
C8A A12C G13A | < 1e-05 |  | 
G7A A14C U30A |  | < 1e-05 | 
